Data taken from patent US20160272995A1, “MANIPULATION OF PLASMODESMAL CONNECTIVITY TO IMPROVE PLANT YIELD AND FITNESS” (UNIVERSITY OF DELAWARE, priority 2013, published 2016).

Columns and labels:
Arabidopsis thaliana = experiment: Primary and lateral root quantification in seedlings; type: in vivo
Description: (§1) (A) Lateral root development in wild type (WT) plants, plants having a severe knock down of PDLP5 (pdlp5-1), and plants overexpressing PDLP5 (PDLPOE) expressing DR5:GUS. Arrowheads indicate tertiary roots. (B) Quantification of total lateral root numbers (both emerged and unemerged secondary [2°], tertiary [3°], and quaternary [4°] roots). n≧30 per seedling set. Bars, standard deviation. Stars, significance determined by student T-test (P<0.01). (C) A diagram depicting several stages of LRP emergence. (D) Percent distribution of LRP stages, recorded at root bend at indicated time points following gravistimulation at 3 dpg. n≧20 seedlings per set.
(A-C) GUS-stained 11-day-old seedlings expressing DR5:GUS in wild type (WT) Col-0 plants (A), plants having a severe knock down of PDLP5 (pdlp5-1) (B), and plants overexpressing PDLP5 (PDLPOE) (C). Size bar in (A), common to (B) and (C). (D) Measurement of primary root length in 10-day-old wild type (WT) seedlings, seedlings having a severe knock down of PDLP5 (pdlp5-1), and seedlings overexpressing PDLP5 (PDLPOE). n=30 seedling per line. (E) Measurement of % emerged lateral root (LR) of total secondary roots in 10-day-old WT, pdlp5-1, and PDLP5OE seedlings. n=30 seedling per line. (F) Measurement of average secondary root length per seedling in 7-day-old WT and pdlp5-1. n=28 seedlings per line.
To investigate the importance of PD function during lateral root emergence, PDLP5 loss-of-function and over-expressing lines were characterized. […] Furthermore, this reduction in secondary root development was reiterated in later stages of root branching, with PDLP5OE showing reduced tertiary root occurrence (26% and 50% of WT at 8 and 11 day post germination [dpg], respectively). […] Lateral roots were 1.4-fold longer on average in pdlp5-1 than WT (FIG. 17F) at 7 dpg and later. […] Given the overall increase in average secondary root length in pdlp5-1, we conclude that the higher occurrence of tertiary and quaternary root formation can be attributed to an accelerated secondary root growth.
All Arabidopsis thaliana genotypes were in the Col-0 genetic background, except for shy2-2 in Ler, and iaa28-1 in Ws. Seedlings were grown vertically in 0.5X MS agar under a continuous light at 22° C. Plants in soil were grown in a 16 hr light, 22° C. All the genetic crosses (see Table 5) were selfed, and genotyped to identify homozygous mutations when necessary. Genomic DNA was isolated from segregating F2 plants followed by PCR analyses using gene-specific primers (see Table 6).
(§2) GUS solution (100 mM sodium phosphate buffer, pH 7.0, 10 mM EDTA, 0.5 mM each potassium ferrocyanide and potassium ferricyanide, 1.24 mM X-Gluc, and 0.1% Triton X-100) was vacuum-infiltrated into plant tissue for five minutes, then removed from vacuum and incubated in 37° C. for 3 to 12 hrs, followed by a series of ethanol washes. Stained tissues were imaged using Zeiss Axioskop 2 microscope. LRP were quantified by counting both the emerged LR and unemerged LR, as determined by DRS::GUS staining of the primordia, under a dissecting microscope (1.2× magnification). LRP stages were determined by examining ethanol-cleared, GUS-stained tissue using 40× water lens.

[1] = tested on: Nicotiana benthamiana leaves; experiment: Transient expression via Agrobacteria-infiltration, extent of viral movement; type: in vivo; conditions: transient expression in Nicotiana benthamiana leaves
Description: (a) Schematics of PDLP5-m5, PDLP5-C, and PDLP5-2C mutants as created by overlapping PCR. (b) Transient expression of mutants in Nicotiana benthamiana leaves.
We also created mutants altering just two cysteines (“CC”, residues 288 and 289 of the C-terminal tail region) or a single cysteine (“C”, residue 298 of the C-terminal tail region) residues to A1a. The phenotypes of these partial mutants, as well as the PDLP5-OX, pldp5-1 and PDLP5-m5, were tested in transient expression in Nicotiana benthamiana leaves via Agrobacteria-infiltration, targeting the extent of viral movement for comparison.

[2] = Arabidopsis plants; cited from earlier work
[3] = tested on: lateral root primordia (LRP); experiment: LRP progression after gravitropic stimulus; type: in vivo, Arabidopsis thaliana; conditions: by 48 hpg
Description: as §1, with “per set. […]” for “per set.”
as §2, with “Stained tissues were imaged using Zeiss Axioskop 2 microscope.” left out

Pseudomonads = conditions: Arabidopsis plants; cited from earlier work

B1: PDLP5OE: Wild-type A. thaliana PDLP5 protein (SEQ ID NO:4) constitutively overexpressed in plants under the 35S promoter (protein, listed as Arabidopsis thaliana)
chain: MIKTKTTSLLCFLLTAVILMNPSSSSPTDNYIYAVCSPAKFSPSSGYETNLNSLLSSFVTSTAQTRYANFTVPTGKPEPTVTVYGIYQCRGDLDPTACSTCVSSAVAQVGALCSNSYSGFLQMENCLIRYDNKSFLGVQDKTLILNKCGQPMEFNDQDALTKASDVIGSLGTGDGSYRTGGNGNVQGVAQCSGDLSTSQCQDCLSDAIGRLKSDCGMAQGGYVYLSKCYARFSVGGSHARQTPGPNFGHEGEKGNKDDNGVGKTLAIIIGIVTLIILLVVFLAFVGKCCRKLQDEKWCK
secondary roots, % of WT number (Arabidopsis thaliana; 8 dpg): 66%
tertiary root occurrence, % of WT (Arabidopsis thaliana; 8 dpg): 26%
emerged LRP among total secondary roots, % of that found in WT (Arabidopsis thaliana; 10-day-old seedlings): 50%
secondary roots, % of WT number (Arabidopsis thaliana; 11 dpg): 77%
tertiary root occurrence, % of WT (Arabidopsis thaliana; 11 dpg): 50%
reduction in the primary root length (Arabidopsis thaliana; ten-day-old seedlings, compared to WT): approximately 30%
extent of viral movement [1]: delay in viral movement
total SA compared with the wild-type control [2]: 15 fold
LRP emergence [3]: none had yet emerged
immunity to infection (Pseudomonads): innate immunity to Pseudomonads infection
